Data set [1] relates to nepetalactol. The data set can be described thus: In vitro characterization of NOR candidates: conversion of nepetalactol to nepetalactone in clarified E. coli cell lysate (GC-MS). The class given is biochemical, Escherichia coli. As to conditions: NAD+ or NADP+, 30° C., 2 hours. The protocol: The plasmids were individually transformed into chemically competent BL21 (DE3) cells. pUC19 was also transformed into BL21 (DE3) to produce a strain that could serve as a negative control. Transformants were selected and grown overnight with shaking in LB medium containing kanamycin. Glycerol stocks were prepared by mixing overnight culture with 50% glycerol in a 1:1 ratio. Glycerol stocks were frozen at −80° C.
BL21 (DE3) strains were streaked out on LB plates containing kanamycin from glycerol stock and grown overnight at 37° C. A single colony was inoculated into 4 mL of LB medium containing kanamycin in 15 mL disposable culture tubes and incubated overnight at 30° C. with shaking at 250 rpm. 500 μL of the overnight culture was subcultured into 50 mL of LB medium containing kanamycin in a 250 mL baffled flask. The culture was grown at 37° C. and the optical density at 600 nm (OD600) was monitored. When OD600 reached between 0.6-1, the cultures were cooled on ice for 15 minutes. The cultures were then induced with 100 μM of isopropyl β-D-1-thiogalactopyranoside and incubated at 15° C. with shaking at 250 rpm for roughly 20 hours. Cultures were pelleted by centrifugation in 50 mL centrifuge tubes. The supernatant was decanted and the pellets were frozen at −20° C. for later processing.
Pellets were thawed on ice and resuspended with 3 mL of cold lysis buffer: 50 mM sodium phosphate, pH=7.4, 100 mM sodium chloride. All remaining steps were performed either on ice or at 4° C. The cell mixture was transferred to a 15 mL centrifuge tube and disrupted with three rounds of sonication using the Branson Sonitier 450 with a double-level microtip at 70% amplitude. A single round of sonication consisted of 6 cycles of 10 seconds with the sonicator on, and 10 seconds off Between each round, the cell mixture was allowed to sit on ice for a minute to cool. The lysed cell mixture was transferred to 1.7 mL centrifuge tubes and centrifuged at maximum speed in a microcentrifuge for 20 minutes. The supernatant (clarified cell lysate) was collected in a separate tube and used for in vitro characterization.
The in vitro reactions were setup as follows: 2 μL of 100 mM NAD+ or NADP+ and 10 μL of 100 uM nepetalactol was added to 188 μL of the clarified cell lysate. The reactions were incubated at 30° C. shaking at 200 rpm for 2 hours. As a positive control, 2 μL of 100 mM NAD+, 2 μL of 100 mM NADP+ and 10 μL of 100 μM nepetalactone was added to 186 μL of clarified lysate from a strain harboring pUC 19 and incubated for 1 hr. The reactions were extracted with one volume of ethyl acetate. The organic layer was withdrawn and analyzed with gas chromatography coupled to mass spectrometry (GC-MS). Authentic standards were run to confirm identities of analytes.

The test system of data set [2] is nepetalactol. The data set can be described thus: Production of nepetalactone from fed nepetalactol in Saccharomyces cerevisiae strains expressing NOR candidates from pESC-URA. The class given is cell-based. The following applies: 100 mg/L nepetalactol, 2% galactose, 24 hours. The protocol:
The plasmids were individually transformed into chemically competent Saccharomyces cerevisiae cells as described in EXAMPLE 2. Transformants were selected on SD-URA agar plates. Three to four replicates were picked into SD-URA liquid medium and cultured at 30° C. for one to two days with shaking at 1000 rpm. Cultures were glycerol stocked at a final concentration of 16.6% glycerol and stored at −80° C. until later use.
10 μL of the glycerol stocked strains was inoculated into 300 μL of minimal media lacking uracil, and containing 4% glucose in 96-well plates to produce seed cultures. The plates were incubated at 30° C. at 1000 rpm for 1-2 days. 10 μL of the seed cultures was then inoculated into 300 μL of minimal media lacking uracil, and containing 2% galactose and 100 mg/L of nepetalactol. 30 μL of methyl oleate was next added to the wells. […]
Cell density was determined using a spectrophotometer by measuring the absorbance of each well at 600 nm. […] The plates were shaken for 25 sat 750 rpm immediately before being measured on a Tecan M1 000 spectrophotometer. […] The plates were centrifuged and the ethyl acetate layer was collected and analyzed by liquid chromatography coupled to mass spectrometry (LC-MS). Target analytes were quantified against authentic standards.

“Also recorded” adds a separate entry of the source.

B1: NcatNOR21: candidate nepetalactol oxidoreductase (NOR) from Nepeta cataria, protein SEQ ID NO: 566 (protein, listed as Nepeta cataria)
chain: MAKSVNAVGWAARDTSGLLSPLKFARPAAGDRDVQFKVLYCGICHSDLHSIKNEWGNTQYPIVPGHEIVGVVTAVGPKATKFKAGDKVGVGCLVNSCRHCDQCAADLENYCPQLVQTYNSVLADGSVTYGGYSDVMTADEDFVIRWPENFPMDKGAPLLCAGVTTYSPLRYYGLDKPGLHIGVVGLGGLGHVAVKFAKAFGMKVTVISTSAGKKKEAIETLGADAFLISRDASEMQAAAGTLDGMIDTVSAQHPLPPLLSLLKPHGKLILVGAPEKPFELPAFPLLMGRKTVAGSVIGGLKETQEMIDFAAKHNLLPEVEMIPMDYVNTAMERLAKADVKYRFVIDVGNTLTKAD
With B1, the “conversion (oxidation) of nepetalactol to nepetalactone” value (“conversion (oxidation) of nepetalactol” below) in data set [1] is “can convert nepetalactol to nepetalactone; also recorded: can oxidize nepetalactol to nepetalactone”.

B2: NcatNOR15: candidate nepetalactol oxidoreductase (NOR) from Nepeta cataria, protein SEQ ID NO: 561 (protein, listed as Nepeta cataria)
chain: MAKTPETEHPVKAFGYAATDNSGTFSPFKFSRRATGERDVQFKVLYCGVCHSDLHMVKNEWGVTHYPIVPGHEIVGVATEVGSKVEKVKVGDKVGVGVIVGSCRQCDQCSNDLENYCSKQILTYGAPYLDGTITRGGYSDIMVADEHFIIRWPENFPLDAGAPLLCAGITTYSPLRYFGLDKPGLRVGVNGLGGLGHVAVKFAKAFGTKVTVISSSLRKKKEAVEKLGVDEFLVSTDPEQMQAAIGTLDGIIDTVSAEHSVVSLLSLLKPHGRLIVVGAPEKPHQLPAFPLITGRKSISGSAIGGMKETQEMIDFAAKHNILPDVEVIPIDYINTAMERLLKSDVKYRFVIDVEKSLKA
In the case of B2, the “conversion (oxidation) of nepetalactol” value in data set [1] is listed as “can convert nepetalactol to nepetalactone”; in data set [1] (listed as NcatNORI5), “can oxidize nepetalactol to nepetalactone”.

B3: GAR_NOR15: NOR candidate (SEQ ID NO: 1393) expressed in Saccharomyces cerevisiae from pESC-URA (protein)
chain: MADKEGEVVCVTGGSGFIGSWLVSLLLRRGYSVRATVKNLGDERETKHLEAIEGADSRLSLFQIDLLDYDSVATAVGDAAGVFHLASPCTIDQVNDPQRELLDPAIKGTLNVLKAAKNLGVRRVVVTSSISAMIASSNSLAETGEDCWIDEDYCRQNGLWYPVSKALAEKAAWKLAEENGLDIVVVNPGMVVGPILPPALNSSMQLMLHVLQGKDFFEGFFMGLVHVKDVALAQILLYENTSASGRHLCVESLSRYDDFAKQMEKLYPEYKLPRFSNNAQHGSLKSDAALKKLRDLGIEFAPLEQIVKDSIESLRSKGYIS
modifications: Nepeta cataria or Nepeta mussinii
In data set [2], B3 had a nepetalactone produced of 93 mg/L.

B4: NcatNOR34: candidate nepetalactol oxidoreductase (NOR) from Nepeta cataria, protein SEQ ID NO: 578 (protein, listed as Nepeta cataria)
chain: MAFCRSSLLLRKALGGSRRAAAAATCSSAYACGWQSERGRWYSGGEGTTISAPGYHVNTAPSHMTGAVFWDKDKPITYEEFEMPRPKANEVLIKTKACGACHSDLHVIKGDLKFPCPCILGHEITGEVVEHGPLTETKYIERYPVGSKVIGAFIMPCGSCFYCSRGEDDLCEPYFAYNRAKGTLYDGQTRLFLRGSGKPVHMWSMSGLAEYCVTPVNGLGALPDTLPYAESSVLGCAVFTAYGAIAHAAEVKPGNSVAVIGIGGVGSSCLQIAKAFGASEIIAVDVEDGKLETAKTFGATHIINSRKEDAIAKIKELTDGRGVDIAVEAIGGPKTFAQCVGSVRAGGKAVMIGLSPTGGKGEVEITQLVRRKVKVIGSYGGRAMTDLPKLVELAEQGTFNLEAAVTRRYKFEEVAQAYQDLQNKTIVGRGVIEIM
As for B4, the “conversion (oxidation) of nepetalactol” value in data set [1] is listed as “can convert nepetalactol to nepetalactone; also recorded: can oxidize nepetalactol to nepetalactone”.

The values are drawn from patent US20220356497A1, “COMPOSITIONS AND METHODS FOR SYNTHESIS OF TERPENOIDS” (Zymergen Inc., priority 2019, published 2022).
